Here are results for three molecules from patent US20100008928A1 (Takeda / Millennium, published 2010).

Holding throughout (test): FCM
One test addresses T1, human nectin-4 protein (human, UniProt Q96NY8 32-510).
T1 construct: transient in CHO-K1 from pCMV-Tag4-Nectin-4
T1 sequence: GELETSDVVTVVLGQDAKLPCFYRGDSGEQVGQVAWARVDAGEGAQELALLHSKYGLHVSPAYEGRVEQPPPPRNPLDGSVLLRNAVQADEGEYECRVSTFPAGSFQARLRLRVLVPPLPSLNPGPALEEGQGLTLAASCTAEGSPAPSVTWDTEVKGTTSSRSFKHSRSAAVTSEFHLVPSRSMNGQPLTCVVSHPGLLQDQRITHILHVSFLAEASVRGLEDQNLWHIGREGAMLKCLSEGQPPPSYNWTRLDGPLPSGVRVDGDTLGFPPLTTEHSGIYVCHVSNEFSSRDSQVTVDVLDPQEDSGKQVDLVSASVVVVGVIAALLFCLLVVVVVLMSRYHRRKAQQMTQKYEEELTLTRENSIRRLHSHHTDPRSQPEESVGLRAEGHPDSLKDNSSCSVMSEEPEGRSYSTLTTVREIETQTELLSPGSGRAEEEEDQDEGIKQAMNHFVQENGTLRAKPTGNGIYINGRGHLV

The target in the next test is T2, human Nec1-5 protein (human, UniProt P15151 21-417).
T2 construct: transient in CHO-K1 from pCMV-Tag4-Nec1-5; also called Necl-5
T2 sequence: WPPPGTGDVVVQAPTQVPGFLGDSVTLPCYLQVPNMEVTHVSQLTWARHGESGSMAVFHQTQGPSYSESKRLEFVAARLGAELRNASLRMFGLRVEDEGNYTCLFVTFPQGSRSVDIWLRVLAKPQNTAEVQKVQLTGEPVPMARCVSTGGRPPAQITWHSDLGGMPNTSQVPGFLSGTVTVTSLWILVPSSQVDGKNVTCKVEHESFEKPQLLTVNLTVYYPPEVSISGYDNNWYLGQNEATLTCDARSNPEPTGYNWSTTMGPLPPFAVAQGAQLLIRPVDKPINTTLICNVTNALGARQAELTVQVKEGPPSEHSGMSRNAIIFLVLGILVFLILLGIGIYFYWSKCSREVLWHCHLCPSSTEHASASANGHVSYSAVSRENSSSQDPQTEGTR

In a further test the target is T3, human nectin-1 protein (human, UniProt Q15223 31-517).
T3 construct: transient in CHO-K1 from pCMV-Tag4-Nectin-1
T3 sequence: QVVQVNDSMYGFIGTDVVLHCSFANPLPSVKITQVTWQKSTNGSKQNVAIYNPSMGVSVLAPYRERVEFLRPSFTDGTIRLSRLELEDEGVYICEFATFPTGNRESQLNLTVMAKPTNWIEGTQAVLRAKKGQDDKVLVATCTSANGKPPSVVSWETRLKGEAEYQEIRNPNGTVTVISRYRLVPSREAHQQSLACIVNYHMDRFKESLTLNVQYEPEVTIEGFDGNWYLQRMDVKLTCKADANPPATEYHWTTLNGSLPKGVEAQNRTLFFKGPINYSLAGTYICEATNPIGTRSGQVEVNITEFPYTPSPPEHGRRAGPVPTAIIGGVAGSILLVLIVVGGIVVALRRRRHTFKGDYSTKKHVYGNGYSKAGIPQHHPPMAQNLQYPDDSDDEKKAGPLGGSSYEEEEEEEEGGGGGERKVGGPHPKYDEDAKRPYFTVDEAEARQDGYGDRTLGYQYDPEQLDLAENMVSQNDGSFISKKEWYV

The target in test [1] is T4, nectin-2 Ig2 domain-deficient protein (human, UniProt Q92692 32-538).
T4 construct: transient in CHO-K1; also called delta-Ig2; Nectin-2ΔIg2
T4 sequence: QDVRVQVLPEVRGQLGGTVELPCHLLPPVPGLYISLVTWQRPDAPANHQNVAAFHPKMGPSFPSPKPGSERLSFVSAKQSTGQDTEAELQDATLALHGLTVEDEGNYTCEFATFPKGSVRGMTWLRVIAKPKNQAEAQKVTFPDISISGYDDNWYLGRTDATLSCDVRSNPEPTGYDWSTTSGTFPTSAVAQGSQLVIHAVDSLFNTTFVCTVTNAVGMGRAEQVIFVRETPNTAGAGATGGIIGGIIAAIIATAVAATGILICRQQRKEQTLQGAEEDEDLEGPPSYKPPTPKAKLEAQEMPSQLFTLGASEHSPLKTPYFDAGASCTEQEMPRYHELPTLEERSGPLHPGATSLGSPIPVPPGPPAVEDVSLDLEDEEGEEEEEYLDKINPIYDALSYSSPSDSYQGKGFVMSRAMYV
Experimental: (§1) After 200 μL of FCM buffer was added to each well and washed once by centrifugal operation, 50 μL each of Alexa488-labeled secondary antibody diluted in FCM buffer to 10 μg/mL was added to and mixed therewith, and the mixture was then reacted on ice for an hour. The Alexa488-labeled secondary antibody used was Alexa Fluor488 goat anti-human IgG (H+L) for the human antibodies and Alexa Fluor488 goat anti-rabbit IgG (H+L) (Invitrogen) for the rabbit antibody. The cells in each well were washed twice with FCM buffer and then resuspended in 250 μL of FCM buffer. Using the flow cytometer MPL500 (BECKMAN COULTER), the fluorescence intensity of stained cells was measured to determine the ratio of the median value of fluorescence intensities of the respective antibodies in the primary antibody group to the median value of fluorescence intensities in the negative control group.

For test [2], the target named is T5, nectin-2 Ig1 domain-deficient protein (human, UniProt Q92692 32-538).
T5 construct: transient in CHO-K1; also called delta-Ig1; Nectin-2ΔIg1
T5 sequence: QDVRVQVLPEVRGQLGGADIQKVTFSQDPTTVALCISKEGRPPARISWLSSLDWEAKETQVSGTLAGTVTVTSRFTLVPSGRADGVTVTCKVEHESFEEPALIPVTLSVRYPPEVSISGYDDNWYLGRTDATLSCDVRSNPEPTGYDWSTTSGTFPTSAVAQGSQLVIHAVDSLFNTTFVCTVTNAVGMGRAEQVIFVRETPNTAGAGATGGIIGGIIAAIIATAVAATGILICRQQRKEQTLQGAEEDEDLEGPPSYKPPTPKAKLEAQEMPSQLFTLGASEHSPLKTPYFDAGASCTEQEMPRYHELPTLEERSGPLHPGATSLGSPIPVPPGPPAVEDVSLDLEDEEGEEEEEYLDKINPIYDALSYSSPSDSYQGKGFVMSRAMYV
Experimental: as §1

Experimental for human Nec1-5 protein: (§2) Specifically, CHO-K1 cell line was incubated in a T75 flask charged with a medium mixture of DMEM and F-12 in equivalent volumes (Invitrogen) supplmented with 10% FBS (JRH) at 37° C. for 1 to 2 days in a 5% carbon dioxide gas flow. […] Four hours after the transfection, the medium for the CHO-K1 cells was exchanged with a fresh aliquot of the medium described above, followed by incubation for further 2 days. These cells were washed twice with D-PBS, detached by Cell Dissociation Buffer, enzyme-free, PBS-based (Invitrogen) and resuspended in D-PBS (−) containing 1% FBS and 0.1% sodium azide (hereinafter referred to as FCM buffer) at a density of 5×10⁶ cells/mL. […] After 200 μL of FCM buffer was added to each well and washed once by centrifugal operation, 50 μL/well of Alexa488-labeled secondary antibody diluted in FCM buffer to 10 μg/mL was added for suspension, which was then reacted on ice for an hour.
Experimental for human nectin-1 protein: as §2
Experimental for human nectin-4 protein: as §2

B1: Nec1-803-2 (antibody, human IgG1, V domains shown)
VH: QVQLQESGPGLVKPSETLSLTCTVSGGSISSYYWTWIRQPPGKGLEWIGYIYYSGSTNSNPSLKSRVTISVDTSKNQFSLKLSSVTAADTAVYYCTRDPGEDYNYGMDVWGQGTTVTVSS
VL: AIQLTQSPSSLSASVGDRVTITCRASQGISSALAWYQQKPGKAPKLLIYDASSLESGVPSRFSGSGSGTDFTLTISSLQPEDFATYYCQQFNSYPRTFGQGTKVEIK
For the molecule B1, the binding result with human nectin-4 protein, with human Nec1-5 protein and with human nectin-1 protein was “no binding (tested: 6 µg/mL)” each time.

B2: Nec1-834-1 (antibody, human IgG1, V domains shown)
VH: QVQLQESGPGLVKPSETLSLTCTVSSASISSYYWSWIRQPPGKGLEWIGYIYYSGSTNYNPSLKSRVTISIDTSKNQFSLKLSSVTAADTAVYYCARDAGEDYSYGMDVWGQGTTVTVSS
VL: AIQLTQSPSSLSASVGDRVTITCRASQGISSALAWYQQKPGKAPKLLIYDASSLESGVPSRFSGSGSGTDFTLTISSLQPEDFATYYCQQFNSYRTFGQGTKVEIK
notes: human IgG1/k from hybridoma FERM BP-10428
Turning to B2, the binding result with human nectin-4 protein, with human Nec1-5 protein and with human nectin-1 protein was “no binding (tested: 6 µg/mL)” in each case.

B3: Nec1-554-1 SP3 (antibody, V domains shown)
VH: EVQLVESGGGLVKPGGSLRLSCAASGFTFSSYNMNWVRQAPGKGLEWVSSISSSSSYIYYADSVKGRFTISRDNAKNSLYLQMNSLRAEDTAVYYCARDYYGSGTYYLFDYWGQGTLVTVSS
VL: EIVLTQSPDFQSVTPKEKVTITCRASQSIGSSLHWYQQKPDQSPKLLIKYASQSFSGVPSRFSGSGSGTDFTLTINSLEAEDAAAYYCHQSRSLPITFGQGTRLEIK
notes: also called antibody fraction (SP3)
For the molecule B3, the binding result in test [1] is reported as “no binding (tested: ratio <2 = no reactivity; 6 µg/mL)”. For the same molecule, the median fluorescence ratio in test [2] was determined as 4.3.
